Patent US20250073302A1 (PURDUE RESEARCH FOUNDATION, published 2025)
Non-standard residues stand in square brackets, D forms with d. No end group written: not given here. dPra = C#CC[C@@H](N)C(=O)O; dDap = NC[C@@H](N)C(=O)O

What was measured:
Assay in all cases: cell-based or functional assay
[1] = biological target: cytosolic proteasome in HEK293 T cells
[2] = biological target: 20S core particle (CP) proteasome
[3] = biological target: 20S core particle (CP) proteasome; remark: listed apart in the source

| In-Cellulo (flow cytometry with epoxomicin probe, HEK293 T cells) [1] | TAS-1 (percent stimulation of 20S CP) [2] | EC50, dose-response of 20S CP stimulation [3] | Emax, dose-response of 20S CP stimulation [3] | Binder |
| --- | --- | --- | --- | --- |
| 161 not printed | 372 % of DMSO | 14.2 µM | 701 | cyclo(D[dL]F[dF]R[dA]) (SMILES CC(C)C[C@H]1NC(=O)[C@H](CC(=O)O)NC(=O)[C@@H](C)NC(=O)[C@H](CCCNC(=N)N)NC(=O)[C@@H](Cc2ccccc2)NC(=O)[C@H](Cc2ccccc2)NC1=O) [CyPPS8] |
| 231 not printed | 388 % of DMSO | 12.1 µM | 514 | cyclo(T[dPra]F[dF]R[dA]) (SMILES C#CC[C@H]1NC(=O)[C@H]([C@@H](C)O)NC(=O)[C@@H](C)NC(=O)[C@H](CCCNC(=N)N)NC(=O)[C@@H](Cc2ccccc2)NC(=O)[C@H](Cc2ccccc2)NC1=O) [CyPPS14] |
| 83.7 not printed | 126 % of DMSO |  |  | TLFFRA (also: linear version of CyPPS1, D-residues not given here) [PPS1] |
| 247 not printed | 352 % of DMSO | 4.1 µM | 391 | cyclo(T[dL]F[dF]R[dDap]) (SMILES CC(C)C[C@H]1NC(=O)[C@H]([C@@H](C)O)NC(=O)[C@@H](CN)NC(=O)[C@H](CCCNC(=N)N)NC(=O)[C@@H](Cc2ccccc2)NC(=O)[C@H](Cc2ccccc2)NC1=O) [CyPPS23] |
|  | 310 % of DMSO |  |  | cyclo(V[dL]F[dF]R[dA]) (SMILES CC(C)C[C@H]1NC(=O)[C@H](C(C)C)NC(=O)[C@@H](C)NC(=O)[C@H](CCCNC(=N)N)NC(=O)[C@@H](Cc2ccccc2)NC(=O)[C@H](Cc2ccccc2)NC1=O) [CyPPS9] |
| 235 not printed | 340 % of DMSO | 6.4 µM | 283 | cyclo(T[dL]F[dF]R[dA]) (SMILES CC(C)C[C@H]1NC(=O)[C@H]([C@@H](C)O)NC(=O)[C@@H](C)NC(=O)[C@H](CCCNC(=N)N)NC(=O)[C@@H](Cc2ccccc2)NC(=O)[C@H](Cc2ccccc2)NC1=O) [CyPPS1] |
| 174 not printed | 422 % of DMSO | 4 µM | 394 | cyclo(T[dV]F[dF]R[dA]) (SMILES CC(C)[C@H]1NC(=O)[C@H]([C@@H](C)O)NC(=O)[C@@H](C)NC(=O)[C@H](CCCNC(=N)N)NC(=O)[C@@H](Cc2ccccc2)NC(=O)[C@H](Cc2ccccc2)NC1=O) [CyPPS13] |
